Reference: paper PMC12052686, “NADK tetramer defective mutants affect lung cancer response to chemotherapy via controlling NADK activity” (Genes & Diseases, 2025)
Changes are numbered by the printed parent chain.

Tests used:
[1] = biological target: T1, human NADK (cNADK, full-length) (Homo sapiens, UniProt O95544, C349S); assay: isothermal titration calorimetry; format: binding
T1 construct: full-length, modified pET28a, His tag cleaved by TEV, E. coli BL21, HisTrap / Resource Q / Superdex 200, tetramer
T1 sequence (O95544 1-446 C349S): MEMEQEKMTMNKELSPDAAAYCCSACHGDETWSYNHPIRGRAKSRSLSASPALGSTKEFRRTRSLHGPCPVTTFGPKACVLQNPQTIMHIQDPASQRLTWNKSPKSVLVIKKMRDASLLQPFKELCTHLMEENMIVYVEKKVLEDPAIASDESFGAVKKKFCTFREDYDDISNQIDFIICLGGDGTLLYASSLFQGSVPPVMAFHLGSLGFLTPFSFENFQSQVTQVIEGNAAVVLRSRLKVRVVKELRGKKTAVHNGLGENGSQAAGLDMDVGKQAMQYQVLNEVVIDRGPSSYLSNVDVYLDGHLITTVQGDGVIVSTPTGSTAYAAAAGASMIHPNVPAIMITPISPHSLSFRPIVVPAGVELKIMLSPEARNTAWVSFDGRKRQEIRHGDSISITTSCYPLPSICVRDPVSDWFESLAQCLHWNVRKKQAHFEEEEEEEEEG

[2] = biological target: the molecule itself; assay: cryo-EM structure; single-particle cryo-EM of the purified, substrate-free NADK tetramer (10 mg/mL); 2.54 Å
[3] = biological target: the molecule itself; assay: SEC; lysates of transfected HEK293T cells with endogenous NADK knocked out, Superdex 200 Increase 10/300 GL, 0.5 mL/min; fractions analysed by immunoblotting

NC(=O)c1ccc[n+]([C@@H]2O[C@H](COP(=O)([O-])OP(=O)(O)OC[C@H]3O[C@@H](n4cnc5c(N)ncnc54)[C@H](O)[C@@H]3O)[C@@H](O)[C@H]2O)c1 [NAD^+]
Kd [1]: 86.9 µM

B1: full-length human NADK (NAD+ kinase), purified tetramer (enzyme, UniProt O95544 1-446, looked up)
chain: T1 sequence (O95544 1-446 C349S) with S349C
notes: Cloned in a modified pET28a vector; the tetramer peak of the Superdex 200 column was collected for cryo-EM; In the map the protomers are visible only from residues 98, 95, 96 and 98; also called cNADK; cytoplasmic NADK; source: E. coli BL21, purified (HisTrap FF, TEV cleavage, Resource Q, Superdex 200 Increase)
stoichiometry N [2]: 4

B2: N-terminal truncated NADK (95-446) (domain or fragment, human, UniProt O95544 95-446, looked up)
chain: SQRLTWNKSPKSVLVIKKMRDASLLQPFKELCTHLMEENMIVYVEKKVLEDPAIASDESFGAVKKKFCTFREDYDDISNQIDFIICLGGDGTLLYASSLFQGSVPPVMAFHLGSLGFLTPFSFENFQSQVTQVIEGNAAVVLRSRLKVRVVKELRGKKTAVHNGLGENGSQAAGLDMDVGKQAMQYQVLNEVVIDRGPSSYLSNVDVYLDGHLITTVQGDGVIVSTPTGSTAYAAAAGASMIHPNVPAIMITPICPHSLSFRPIVVPAGVELKIMLSPEARNTAWVSFDGRKRQEIRHGDSISITTSCYPLPSICVRDPVSDWFESLAQCLHWNVRKKQAHFEEEEEEEEEG
notes: also called ΔN95; N-terminal truncation mutant; source: HEK293T with endogenous NADK knocked out, transfected, in lysate
stoichiometry N [3]: 4
